Data reported in patent publication US6881545 (Takeda / Millennium, dated 2005).
No end group written: not given here.

Target: T1, human pituitary-derived G protein-coupled receptor protein encoded by phGR3 (hGR3), expressed on CHO-19P2 / … (human, UniProt P49683 1-370)
T1 construct: CHO-19P2-9 is a monoclone of CHO-19P2 selected for a stronger response to 19P2-L31; also called full-length receptor protein; 19P2 receptor
T1 sequence: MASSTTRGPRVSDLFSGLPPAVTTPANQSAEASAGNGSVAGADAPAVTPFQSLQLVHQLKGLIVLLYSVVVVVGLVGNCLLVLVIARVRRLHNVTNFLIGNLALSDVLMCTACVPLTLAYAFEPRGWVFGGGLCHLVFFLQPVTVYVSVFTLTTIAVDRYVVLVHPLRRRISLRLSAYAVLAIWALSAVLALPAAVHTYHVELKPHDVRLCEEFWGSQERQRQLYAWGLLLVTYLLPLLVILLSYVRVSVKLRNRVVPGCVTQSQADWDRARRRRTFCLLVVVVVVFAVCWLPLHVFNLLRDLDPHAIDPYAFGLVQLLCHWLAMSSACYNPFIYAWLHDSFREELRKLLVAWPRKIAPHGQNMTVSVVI
Experiment: radioligand binding on live CHO-19P2-9 cells, 200 pM tracer, non-specific binding with 200 nM unlabeled 19P2-L31, filtration
Description: As receptor-expressing CHO cells, CHO-19P2-9; mono-clone of CHO-19P2, CHO-UHR-1, and mock CHO were used in this experiment. CHO-19P2-9 cells are ones selected from CHO-19P2 cells by ultradilution technique using 96-well microplate as clone which indicated stronger arachidonic acid metabolic-release promoting reaction by 19P2-L31. The mock CHO cells are ones for control which were transformed with expression vector pAKKO alone. These cells cultured in flasks for culturing tissues were harvested with 5 mM EDTA/PBS, and then resuspended in HBSS containing 0.05% BSA and 0.05% CHAPS at 0.5 ×10^7 cells/ml. […] The reaction mixture were diluted with 2 ml of an ice-cold beffer (50 mM Tris-HCl pH7.5 containing 5 mM EDTA, 0.05% BSA, and 0.05% CHAPS) and immediately filtered though glass filters GF/F (Whattman) which were pre-wetted with the buffer containing 0.3% polyethylenimine. The glass filters were subjected to γ-counting. Non-specific binding was determined in the presence of 200 nM unlabeled 19P2-L31.

- binding result: binds
B1: [^125I]-19P2-L31 (19P2-L31 radioiodinated with [^125I]-Bolton-Hunter Reagent) (peptide)
peptide: SRAHQHSMEIRTPDINPAWYAGRGIRPVGRF-NH2
modifications: also: radioiodinated with [125I]-Bolton-Hunter reagent, site not given here
notes: also called radioiodinated 19P2-L31; radioiodinated ligand polypeptide
